The text below walks through data of publication PMC10634658.

The target of test [1] is PAC-BLUF (BLUF domain of OaPAC, residues 1-102) (Oscillatoria acuminata). The test is described as follows: SEC; Superdex 200 Increase 10/300, PBS, room temperature, 50 μM, 100 μl injected; dark state and light state (column irradiated with a Xe lamp); mass calibrated with a gel filtration standard.
For test [2] the target is unchanged. The test is described as follows: transient grating (diffusion coefficient); 80 μM protein, 23 °C, excitation at 462 nm; diffusion coefficients of reactant (dark) and photoproduct (light) compared with those expected for monomer and dimer.
Test [3] addresses full-length OaPAC (photoactivated adenylate cyclase from Oscillatoria acuminata) (Oscillatoria acuminata). The test is described as follows: SEC; Superdex 200 Increase 10/300, PBS, room temperature, 50 μM, 100 μl injected; dark state and light state (column irradiated with a Xe lamp); mass calibrated with a gel filtration standard.
For test [4] the target is unchanged. The test is described as follows: transient grating (diffusion coefficient); 80 μM protein, 23 °C, excitation at 462 nm; diffusion coefficients of reactant (dark) and photoproduct (light) compared with those expected for monomer and dimer.
Test [5] has the same target. Description: SAXS; Photon Factory BL-15A2, flowing sample, dark state and light state (450 nm diode laser); molecular mass from the Guinier plot (80 kDa).
Test [6] deals with BLUF-α3 (PAC-BLUF domain with the α3-helix of OaPAC, residues 1-126) (Oscillatoria acuminata). The test is described as follows: SEC; Superdex 200 Increase 10/300, PBS, room temperature, 50 μM, 100 μl injected; dark state and light state (column irradiated with a Xe lamp); mass calibrated with a gel filtration standard.
For test [7] the target is unchanged. Description: transient grating (diffusion coefficient); 80 μM protein, 23 °C, excitation at 462 nm; diffusion coefficients of reactant (dark) and photoproduct (light) compared with those expected for monomer and dimer.

As to “PAC-BLUF (BLUF domain of OaPAC, residues 1-102) (domain or fragment)”, the stoichiometry N in test [1] and in test [2] was 2 each time.

“full-length OaPAC (photoactivated adenylate cyclase from Oscillatoria acuminata) (enzyme)”: the stoichiometry N in test [3], in test [4] and in test [5] was 2 in each case.

Take “BLUF-α3 (PAC-BLUF domain with the α3-helix of OaPAC, residues 1-126) (domain or fragment)”: the stoichiometry N in test [6] and in test [7] was 2 each time.
